In paper PMC11415531 (Synthetic and Systems Biotechnology, 2024):

Target: the molecule itself
Test: crystal structure

B1: S-adenosyl-L-methionine-dependent methyltransferase RdmB from Streptomyces purpurascens (enzyme)
chain: MSSSSPGEPLEPTDQDLDVLLKNLGNLVTPMALRVAATLRLVDHLLAGADTLAGLADRTDTHPQALSRLVRHLTVVGVLEGGEKQGRPLRPTRLGMLLADGHPAQQRAWLDLNGAVSHADLAFTGLLDVVRTGRPAYAGRYGRPFWEDLSADVALADSFDALMSCDEDLAYEAPADAYDWSAVRHVLDVGGGNGGMLAAIALRAPHLRGTLVELAGPAERARRRFADAGLADRVTVAEGDFFKPLPVTADVVLLSFVLLNWSDEDALTILRGCVRALEPGGRLLVLDRADVEGDGADRFFSTLLDLRMLTFMGGRVRTRDEVVDLAGSAGLALASERTSGSTTLPFDFSILEFTAVSEEAAPAAQASEALPAQE
- binding result: binds
